± gives the standard deviation of the averaged measurements.
Assay: total protein half-life in vivo (active degradation + dilution); higher = more stable protein
[1] = E. coli NCM3722 delta-clpP delta-lon delta-hslV, growth: N-lim chemostat, doubling time 6 h
[2] = E. coli NCM3722 delta-clpP, growth: N-lim chemostat, doubling time 6 h
[3] = E. coli NCM3722 delta-hslV, growth: N-lim chemostat, doubling time 6 h
[4] = E. coli NCM3722 delta-lon, growth: N-lim chemostat, doubling time 6 h
[5] = E. coli NCM3722 delta-smpB, growth: N-lim chemostat, doubling time 6 h
[6] = wild type E. coli NCM3722, growth: C-lim chemostat, doubling time 3 h
[7] = wild type E. coli NCM3722, growth: C-lim chemostat, doubling time 6 h
[8] = wild type E. coli NCM3722, growth: C-lim chemostat, doubling time 12 h
[9] = wild type E. coli NCM3722, growth: N-lim chemostat, doubling time 6 h
[10] = wild type E. coli NCM3722, growth: N-lim chemostat, doubling time 12 h
[11] = wild type E. coli NCM3722, growth: P-lim chemostat, doubling time 6 h
[12] = wild type E. coli NCM3722, growth: P-lim chemostat, doubling time 12 h

Row | Sequence | total protein half-life in vivo [1] | total protein half-life in vivo [2] | total protein half-life in vivo [3] | total protein half-life in vivo [4] | total protein half-life in vivo [5] | total protein half-life in vivo [6] | total protein half-life in vivo [7] | total protein half-life in vivo [8] | total protein half-life in vivo [9] | total protein half-life in vivo [10] | total protein half-life in vivo [11] | total protein half-life in vivo [12]
1 | MTQQPQAKYRHDYRAPDYQITDIDLTFDLDAQKTVVTAVSQAVRHGASDAPLRLNGEDLKLVSVHINDEPWTAWKEEEGALVISNLPERFTLKIINEISPAANTALEGLYQSGDALCTQCEAEGFRHITYYLDRPDVLARFTTKIIADKIKYPFLLSNGNRVAQGELENGRHWVQWQDPFPKPCYLFALVAGDFDVLRDTFTTRSGREVALELYVDRGNLDRAPWAMTSLKNSMKWDEERFGLEYDLDIYMIVAVDFFNMGAMENKGLNIFNSKYVLARTDTATDKDYLDIERVIGHEYFHNWTGNRVTCRDWFQLSLKEGLTVFRDQEFSSDLGSRAVNRINNVRTMRGLQFAEDASPMAHPIRPDMVIEMNNFYTLTVYEKGAEVIRMIHTLLGEENFQKGMQLYFERHDGSAATCDDFVQAMEDASNVDLSHFRRWYSQSGTPIVTVKDDYNPETEQYTLTISQRTPATPDQAEKQPLHIPFAIELYDNEGKVIPLQKGGHPVNSVLNVTQAEQTFVFDNVYFQPVPALLCEFSAPVKLEYKWSDQQLTFLMRHARNDFSRWDAAQSLLATYIKLNVARHQQGQPLSLPVHVADAFRAVLLDEKIDPALAAEILTLPSVNEMAELFDIIDPIAIAEVREALTRTLATELADELLAIYNANYQSEYRVEHEDIAKRTLRNACLRFLAFGETHLADVLVSKQFHEANNMTDALAALSAAVAAQLPCRDALMQEYDDKWHQNGLVMDKWFILQATSPAANVLETVRGLLQHRSFTMSNPNRIRSLIGAFAGSNPAAFHAEDGSGYLFLVEMLTDLNSRNPQVASRLIEPLIRLKRYDAKRQEKMRAALEQLKGLENLSGDLYEKITKALA | 5.11 ± 0.53 h | 4.45 ± 0.1 h | 4.27 ± 0.086 h | 4.48 ± 0.29 h | 4.38 ± 0.084 h | 3.05 ± 0.19 h | 5.55 ± 0.11 h | 10.5 ± 0.56 h | 4.36 ± 0.11 h | 6.63 ± 0.16 h | 5.89 ± 0.069 h | 11.3 ± 0.68 h
2 | MKRINALTIAGTDPSGGAGIQADLKTFSALGAYGCSVITALVAQNTRGVQSVYRIEPDFVAAQLDSVFSDVRIDTTKIGMLAETDIVEAVAERLQRYQIQNVVLDTVMLAKSGDPLLSPSAVATLRSRLLPQVSLITPNLPEAAALLDAPHARTEQEMLEQGRSLLAMGCGAVLMKGGHLDDEQSPDWLFTREGEQRFTAPRIMTKNTHGTGCTLSAALAALRPRHTNWADTVQEAKSWLSSALAQADTLEVGHGIGPVHHFHAWW | 5.24 ± 0.81 h | 5.47 ± 0.26 h | 4.31 ± 0.15 h | 4.49 ± 0.18 h | 4.23 ± 0.093 h | 3.06 ± 0.055 h | 5.96 ± 0.11 h | 9.68 ± 4.2 h | 4.49 ± 0.61 h | 7.38 ± 0.17 h | 5.89 ± 0.12 h | 9.53 ± 1.9 h
3 | MIKQTIVALLLSVGASSVFAAGTVKVFSNGSSEAKTLTGAEHLIDLVGQPRLANSWWPGAVISEELATAAALRQQQALLTRLAEQGADSSADDAAAINALRQQIQALKVTGRQKINLDPDIVRVAERGNPPLQGNYTLWVGPPPSTVTLFGLISRPGKQPFTPGRDVASYLSDQSLLSGADRSYAWVVYPDGRTQKAPVAYWNKRHVEPMPGSIIYVGLADSVWSETPDALNADILQTLTQRIPQ | 7.07 h | 6.22 h | – | 7.193 ± 0.064 h | 5.1 ± 0.077 h | – | – | – | – | – | – | –
4 | MNTARLNQGTPLLLNAVSKHYAENIVLNQLDLHIPAGQFVAVVGRSGGGKSTLLRLLAGLETPTAGDVLAGTTPLAEIQEDTRMMFQDARLLPWKSVIDNVGLGLKGQWRDAARRALAAVGLENRAGEWPAALSGGQKQRVALARALIHRPGLLLLDEPLGALDALTRLEMQDLIVSLWQEHGFTVLLVTHDVSEAVAMADRVLLIEEGKIGLDLTVDIPRPRRLGSVRLAELEAEVLQRVMQRGESETRLRKQG [P0AAI1] | 5.9 ± 0.12 h | 1.1 h | – | – | – | – | – | – | – | – | – | –
5 | MADWVTGKVTKVQNWTDALFSLTVHAPVLPFTAGQFTKLGLEIDGERVQRAYSYVNSPDNPDLEFYLVTVPDGKLSPRLAALKPGDEVQVVSEAAGFFVLDEVPHCETLWMLATGTAIGPYLSILQLGKDLDRFKNLVLVHAARYAADLSYLPLMQELEKRYEGKLRIQTVVSRETAAGSLTGRIPALIESGELESTIGLPMNKETSHVMLCGNPQMVRDTQQLLKETRQMTKHLRRRPGHMTAEHYW | – | 3.93 ± 0.36 h | 4.14 ± 0.33 h | 4.64 ± 0.33 h | 3.83 ± 0.12 h | 2.888 ± 0.0031 h | 5.62 ± 0.29 h | 10.8 ± 0.21 h | 4.29 ± 0.31 h | 6.73 ± 0.41 h | 5.609 ± 0.031 h | 11.3 ± 0.53 h
6 | MKGLNKITCCLLAALLMPCAGHAENEQYGANFNNADIRQFVEIVGQHLGKTILIDPSVQGTISVRSNDTFSQQEYYQFFLSILDLYGYSVITLDNGFLKVVRSANVKTSPGMIADSSRPGVGDELVTRIVPLENVPARDLAPLLRQMMDAGSVGNVVHYEPSNVLILTGRASTINKLIEVIKRVDVIGTEKQQIIHLEYASAEDLAEILNQLISESHGKSQMPALLSAKIVADKRTNSLIISGPEKARQRITSLLKSLDVEESEEGNTRVYYLKYAKATNLVEVLTGVSEKLKDEKGNARKPSSSGAMDNVAITADEQTNSLVITADQSVQEKLATVIARLDIRRAQVLVEAIIVEVQDGNGLNLGVQWANKNVGAQQFTNTGLPIFNAAQGVADYKKNGGITSANPAWDMFSAYNGMAAGFFNGDWGVLLTALASNNKNDILATPSIVTLDNKLASFNVGQDVPVLSGSQTTSGDNVFNTVERKTVGTKLKVTPQVNEGDAVLLEIEQEVSSVDSSSNSTLGPTFNTRTIQNAVLVKTGETVVLGGLLDDFSKEQVSKVPLLGDIPLVGQLFRYTSTERAKRNLMVFIRPTIIRDDDVYRSLSKEKYTRYRQEQQQRIDGKSKALVGSEDLPVLDENTFNSHAPAPSSR | 2.53 h | – | – | – | 1.92 ± 0.044 h | 2.2 h | – | – | – | – | – | –
7 | MNKNMAGILSAAAVLTMLAGCTAYDRTKDQFVQPVVKDVKKGMSRAQVAQIAGKPSSEVSMIHARGTCQTYILGQRDGKAETYFVALDDTGHVINSGYQTCAEYDTDPQAAK [P0ADB1] | 5.54 ± 0.094 h | 5.7 ± 0.36 h | – | – | 5.74 ± 0.22 h | 3.03 ± 0.22 h | 6.14 ± 0.68 h | 10.4 ± 1.6 h | – | 12.3 ± 2.4 h | 5.73 ± 0.26 h | 12.6 ± 0.59 h

Source: the supplement of paper PMC11246515
